Tests used:
[1] = target: T1, EGFP-tagged human TRPC5EM (amino acids 1 to 765) in lipid nanodiscs (human, UniProt Q9UL62 1-765); experiment: cell-based or functional assay
T1 sequence (looked up): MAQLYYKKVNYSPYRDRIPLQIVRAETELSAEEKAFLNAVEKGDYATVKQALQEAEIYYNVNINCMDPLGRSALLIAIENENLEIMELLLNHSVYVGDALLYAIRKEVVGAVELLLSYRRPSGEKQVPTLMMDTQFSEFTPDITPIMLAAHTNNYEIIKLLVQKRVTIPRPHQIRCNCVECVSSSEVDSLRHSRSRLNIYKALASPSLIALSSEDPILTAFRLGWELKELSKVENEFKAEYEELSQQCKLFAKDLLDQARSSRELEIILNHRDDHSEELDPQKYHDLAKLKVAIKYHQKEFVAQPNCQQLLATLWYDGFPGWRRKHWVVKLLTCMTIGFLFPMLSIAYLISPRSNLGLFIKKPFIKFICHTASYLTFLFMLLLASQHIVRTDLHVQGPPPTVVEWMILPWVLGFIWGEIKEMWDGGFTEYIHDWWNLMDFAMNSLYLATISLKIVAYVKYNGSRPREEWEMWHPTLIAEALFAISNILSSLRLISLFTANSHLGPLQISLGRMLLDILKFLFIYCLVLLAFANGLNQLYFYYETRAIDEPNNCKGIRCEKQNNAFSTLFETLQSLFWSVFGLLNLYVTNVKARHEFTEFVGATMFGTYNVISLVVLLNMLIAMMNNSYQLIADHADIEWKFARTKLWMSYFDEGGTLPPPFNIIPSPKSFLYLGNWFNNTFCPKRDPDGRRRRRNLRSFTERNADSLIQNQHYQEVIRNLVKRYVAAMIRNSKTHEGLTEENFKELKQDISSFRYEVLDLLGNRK

[2] = target: T1, EGFP-tagged human TRPC5EM (amino acids …); experiment: BLI; BLItz, AR2G biosensors; EGFP-tagged TRPC5 in lipid nanodiscs (500 nM) immobilised by NHS/EDC; GTP-activated Gαi3^Q204L flowed at 0.31-1.25 μM, 300 s association, 300 s dissociation; 20 mM HEPES-NaOH pH 8.0, 150 mM NaCl; fitted by specific binding with Hill slope; conditions: both partners purified
[3] = target: T2, human TRPC5 (amino acids 1 to 765, TRPC5EM) in lipid nanodiscs, EGFP and Twin-StrepII-tag removed (human, UniProt Q9UL62 1-765); experiment: cryo-EM structure; TRPC5EM in MSP2N2/soybean lipid nanodiscs, alone or mixed with GTP-activated N-myristoylated Gαi3^Q204L at Gα:TRPC5 monomer = 6:1; Buffer A (50 mM Tris-HCl pH 8.0, 150 mM NaCl, 1 mM DTT) with 5 μM GTP; 2.5 mM CaCl2 added before vitrification; no PIP2; conditions: both partners purified
T2 construct: transient receptor potential canonical 5 (TRPC5), human, amino acids 1 to 765; C-terminal loop region (residues 766-973) truncated; Tags removed with HRV-3C protease after the complex with Gαi3 was formed; residues of the HRV-3C site may be left at the C-terminus; Reconstituted in MSP2N2 nanodiscs; also called TRPC5_(Class1); TRPC5_(Class2); source: HEK293S GnTI- suspension cells (BacMam), …
T2 sequence (looked up): T1 sequence (looked up)

B1: N-myristoylated human Gαi3^Q204L, GTP-activated (natural protein)
chain: TLSAEDKAAVERSKMIDRNLREDGEKAAKEVKLLLLGAGESGKSTIVKQMKIIHEDGYSEDECKQYKVVVYSNTIQSIIAIIRAMGRLKIDFGEAARADDARQLFVLAGSAEEGVMTPELAGVIKRLWRDGGVQACFSRSREYQLNDSASYYLNDLDRISQSNYIPTQQDVLRTRVKTTGIVETHFTFKDLYFKMFDVGGLRSERKKWIHCFEGVTAIIFCVALSDYDLVLAEDEEMNRMHESMKLFDSICNNKWFTETSIILFLNKKDLFEEKIKRSPLTICYPEYTGSNTYEEAAAYIQCQFEDLNRRKDTKEIYTHFTCATDTKNVQFVFDAVTDVIIKNNLKE
modifications: myristoylation at the N-terminal glycine
notes: hexa-histidine tag inserted between M119 and T120; Incubated with 1 mM GTP for 1 h at 30 °C before use; The His tag is internal and no cleavage is described; Myristoylation of the N-terminal glycine implies loss of the first methionine; also called myristoylated Gαi3^Q204L
Q: Which results are given for B1?
A: fold increase in open probability (Po) by Gαi3 (14.6 μM against 0.07 μM) at physiological PIP2, excised inside-out patch [1]: ~7 fold; Kd [2]: 530 nM; stoichiometry N [3]: ≤ 4 Gαi3 per TRPC5 tetramer
